From patent US20160289285A1 (Molecular Partners, published 2016)
Values belong to the binder of their own block, whether it stands above or below them.

Assays:
[1] = biological target: T1, human HGF (human, UniProt P14210 32-728); experiment: SPR (ProteOn)
T1 construct: also called hepatocyte growth factor
Protocol: (§1) SPR was measured using a ProteOn instrument (BioRad) and measurement was performed according standard procedures known to the person skilled in the art.

[2] = biological target: T2, human serum albumin (human, UniProt P02768 25-609); experiment: SPR (ProteOn)
T2 construct: For SEC-MALS purified from CSL Behring 20% solution; also called HSA; SA (human)
Protocol: as §1

T1 sequence (P14210 32-728 limits assumed): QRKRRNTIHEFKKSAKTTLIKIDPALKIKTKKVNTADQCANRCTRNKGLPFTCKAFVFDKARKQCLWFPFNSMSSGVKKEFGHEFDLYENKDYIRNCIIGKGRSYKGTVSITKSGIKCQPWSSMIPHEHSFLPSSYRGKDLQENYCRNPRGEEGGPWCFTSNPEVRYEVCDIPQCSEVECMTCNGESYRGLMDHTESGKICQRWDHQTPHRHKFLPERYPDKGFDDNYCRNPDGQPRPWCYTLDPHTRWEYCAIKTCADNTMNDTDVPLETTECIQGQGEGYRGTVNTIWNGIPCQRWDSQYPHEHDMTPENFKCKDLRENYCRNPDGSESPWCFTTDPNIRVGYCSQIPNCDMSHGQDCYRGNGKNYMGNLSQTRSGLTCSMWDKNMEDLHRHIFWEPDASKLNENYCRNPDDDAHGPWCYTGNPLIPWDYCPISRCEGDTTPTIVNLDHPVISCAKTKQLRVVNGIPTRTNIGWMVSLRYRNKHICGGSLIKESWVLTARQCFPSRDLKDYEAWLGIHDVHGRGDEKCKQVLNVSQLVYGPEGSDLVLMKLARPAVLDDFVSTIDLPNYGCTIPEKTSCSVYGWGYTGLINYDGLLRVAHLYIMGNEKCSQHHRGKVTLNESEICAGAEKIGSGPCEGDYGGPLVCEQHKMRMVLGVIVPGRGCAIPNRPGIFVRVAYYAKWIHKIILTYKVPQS
T2 sequence (P02768 25-609 limits assumed): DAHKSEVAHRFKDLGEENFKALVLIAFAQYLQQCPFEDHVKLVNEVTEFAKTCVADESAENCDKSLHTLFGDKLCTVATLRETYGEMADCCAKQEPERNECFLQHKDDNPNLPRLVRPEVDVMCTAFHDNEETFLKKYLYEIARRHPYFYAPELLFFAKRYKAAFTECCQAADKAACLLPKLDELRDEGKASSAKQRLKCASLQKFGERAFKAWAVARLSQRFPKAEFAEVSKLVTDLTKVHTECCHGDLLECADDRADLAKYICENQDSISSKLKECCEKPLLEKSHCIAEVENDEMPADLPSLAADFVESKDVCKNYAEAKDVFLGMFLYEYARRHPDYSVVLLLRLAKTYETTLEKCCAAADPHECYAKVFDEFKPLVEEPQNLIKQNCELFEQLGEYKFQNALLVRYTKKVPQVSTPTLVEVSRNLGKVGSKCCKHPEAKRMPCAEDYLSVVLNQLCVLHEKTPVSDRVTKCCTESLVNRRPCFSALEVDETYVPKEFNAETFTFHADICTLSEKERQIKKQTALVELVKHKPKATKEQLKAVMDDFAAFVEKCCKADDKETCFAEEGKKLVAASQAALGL

binding result [1]: binds
B1: Protein #35 (designed binder)
chain: MRGSHHHHHHGSDLGKKLLEAARAGQDDEVRILMANGADVNANDFLGLTPLHLAASTGHLEIVEVLLKYGADVNAIDAYGHTPLHLAANNGHLEIVEVLLKYGADVNAIDHFGYTPLHLAAMFGHLEIVEVLLKNGADVNAQDKFGKTAFDISIDNGNEDLAEILQKAA

binding result [2]: binds
B2: Protein #40 (designed binder)
chain: MRGSHHHHHHGSDLGKKLLEAARAGQDDEVRILMASGADVNAADYFSHTPLHLAARDGHLKIVEVLLKYGADVDASDFAGKTPLHLAANDGHLEIVEVLLKHDADVNAQDKFGKTAFDISIDNGNEDLAEILQKAA

binding result [2]: binds
B3: Protein #41 (designed binder)
chain: MRGSHHHHHHGSDLGKELLEAARAGQDDEVRILMANGADVNAADYFGHTPLHLAARNGHLKIVEVLLKYGADVNASDFAGKTPLHLAANDGHLEIVEVLLKHGADVNAQDIFGKTAFEISIDNGNEDLAEILQKAA

binding result [2]: binds
B4: Protein #42 (designed binder)
chain: MRGSHHHHHHGSDLGKKLLEAARAGQDDEVRILMANGADVNAADYFGHTPLHLAARDGHLKIVEVLLKYGADVNASDFAGKTPLHLAANDGHLEIVEVLLKHGADVNAQDKFGKTAFDISIDNGNEDLAEILQKAA

Kd [2]: 6 nM
B5: Protein #52 (designed binder)
chain: MRGSHHHHHHGSDLDKKLLEAARAGQDDEVRILMANGADVNAKDERGTTPLHLAAVYGHLEIVEVLLKAGADVNAKNETGYTPLHLADSSGHLEIVEVLLKHSADVNAQDKSGKTPADLAADAGHEDIAEVLQKAA

Kd [2]: 11 nM
B6: Protein #54 (designed binder)
chain: MRGSHHHHHHGSDLDKKLLEAARAGQDDEVRILMANGADVNAKDERGTTPLHLAAVYGHLEIVEVLLKAGADVNAKNETGYTPLHLADSSGHLEIVEVLLKAGADVNAQDKSGKTPADLAADAGHEDIAEVLQKAA

Kd [2]: 15 nM
B7: Protein #55 (designed binder)
chain: MRGSHHHHHHGSDLDKKLLEAARAGQDDEVRILMANGADVNAKDERGTTPLHLAAVYGHLEIVEVLLKAGADVNAKNETGYTPLHLADSSGHLEIVEVLLKHGADVNAQDKSGKTPADLAADAGHEDIAEVLQKAA

binding result [2]: binds
B8: Protein #56 (designed binder)
chain: MRGSHHHHHHGSDLDKKLLEAARAGQDDEVRILMANGADVNAKDERGTTPLHLAAVYGHLEIVEVLLKAGADVNAKNETGYTPLHLADSSGHLEIVEVLLKASADVNAQDKSGKTPADLAADAGHEDIAEVLQKAA

Kd [2]: 14 nM
B9: Protein #51 (designed binder)
chain: MRGSHHHHHHGSDLGKKLLEAARAGQDDEVRILMANGADVNAKDYFSHTPLHLAARNGHLKIVEVLLKAGADVNAKDFAGKTPLHLAANDGHLEIVEVLLKHGADVNAQDIFGKTPADIAADAGHEDIAEVLQKAA

Kd [2]: 22 nM
B10: Protein #46 (designed binder)
chain: MRGSHHHHHHGSDLGKKLLEAARAGQDDEVRILLAAGADVNAKDYFSHTPLHLAARNGHLKIVEVLLKAGADVNAKDFAGKTPLHLAANDGHLEIVEVLLKHGADVNAQDIFGKTPADIAADAGHEDIAEVLQKAA

Kd [2]: 20 nM
B11: Protein #48 (designed binder)
chain: MRGSHHHHHHGSDLGKKLLEAARAGQDDEVRILLKAGADVNAKDYFSHTPLHLAARNGHLKIVEVLLKAGADVNAKDFAGKTPLHLAANDGHLEIVEVLLKAGADVNAQDIFGKTPADIAADAGHEDIAEVLQKAA

Kd [2]: 13 nM
B12: Protein #45 (designed binder)
chain: MRGSHHHHHHGSDLGKKLLEAARAGQDDEVRILMANGADVNAKDYFSHTPLHLAARNGHLEIVEVLLKAGADVNAKDFAGKTPLHLAANDGHLEIVEVLLKHGADVNAQDIFGKTPADIAADAGHEDIAEVLQKAA

binding result [2]: binds
B13: Protein #43 (designed binder)
chain: MRGSHHHHHHGSDLGKKLLEAARAGQDDEVRILMANGADVNAADYFSHTPLHLAARDGHLKIVEVLLKYGADVNASDFAGKTPLHLAANDGHLEIVEVLLKHGADVNAQDIFGKTAFDISIDNGNEDLAEILQKAA

Kd [2]: 15 nM
B14: Protein #49 (designed binder)
chain: MRGSHHHHHHGSDLGKKLLEAARAGQDDEVRELLKAGADVNAKDYFSHTPLHLAARNGHLKIVEVLLKAGADVNAKDFAGKTPLHLAANDGHLEIVEVLLKAGADVNAQDIFGKTPADIAADAGHEDIAEVLQKAA

Kd [2]: 26 nM
B15: Protein #44 (designed binder)
chain: MRGSHHHHHHGSDLDKKLLEAARAGQDDEVRILMANGADVNAKDYFSHTPLHLAARNGHLEIVEVLLKAGADVNAKDFAGKTPLHLAANDGHLEIVEVLLKHGADVNAQDIFGKTPADIAADAGHEDIAEVLQKAA

Kd [2]: 27 nM
B16: Protein #47 (designed binder)
chain: MRGSHHHHHHGSDLDKKLLEAARAGQDDEVRILMANGADVNAKDYFSHTPLHLAARNGHLKIVEVLLKAGADVNAKDFAGKTPLHLAANDGHLEIVEVLLKHGADVNAQDIFGKTPADIAADAGHEDIAEVLQKAA

Kd [2]: 27 nM
B17: Protein #50 (designed binder)
chain: MRGSHHHHHHGSDLGKKLLEAARAGQDDEVRELLKAGADVNAKDYFSHTPLHLAARNGHLKIVEVLLKAGADVNAKDFAGKTPLHLAANEGHLEIVEVLLKAGADVNAQDIFGKTPADIAADAGHEDIAEVLQKAA

binding result [2]: binds
B18: Protein #57 (designed binder)
chain: MRGSHHHHHHGSDLGKKLLEAARAGQDDEVRILMANGADVNAKDYFSHTPLHLAARNGHLKIVEVLLKAGADVNAKDFAGKTPLHLAANDGHLEIVEVLLKHGADVNAQDIFGKTPADIAADAGHEDIAEVLQKLGSPTPTPTTPTPTPTTPTPTPTGSRSDLDITGLKLN

binding result [1]: binds
B19: Protein #30 (designed binder)
chain: MRGSHHHHHHGSDLGKKLLEAARAGQDDEVRILMANGADVNTHDNFGDTPLHLAASIGHLEIVEVLLKHGADVNAFDSYGDTPLHLAASSGHLEIVEVLLKYGADVNALDYNGNTPLHLAANSGRLEIVEVLLKHGADVNAQDKFGKTAFDISIDNGNEDLAEILQKAA

binding result [1]: binds
B20: Protein #31 (designed binder)
chain: MRGSHHHHHHGSDLGKKLLEAARAGQDDEVRILMANGADVNAVDAWGDTPLHLAASIGHLEIVEVLLKNGADVNAADYYGDTPLHLAASAGHLEIVEVLLKYGADVNAQDDNGNTPLHLAANTGRLEIVEVLLKHGADVNAQDKFGKTAFDISIDNGNEDLAEILQKAA

binding result [2]: binds
B21: Protein #53 (designed binder)
chain: MRGSHHHHHHGSDLGKKLLEAARAGQDDEVRFLMANGADVNAADERGTTPLHLAAVYGHLEIVEVLLKNGADVNAQNETGYTPLHLADSSGHLEIVEVLLKHSADVNAQDKFGKTAFDISIDNGNEDLAEILQKAA

Kd [1]: 0.163 nM
B22: Protein #24 (designed binder)
chain: MRGSHHHHHHGSDLGKKLLEAARAGQDDEVRILMANGADVNAKDRFGDTPLHLAADIGHLEIVEVLLKAGADVNAKDWFGNTPLHLAASFGHLEIVEVLLKAGADVNAKDDYGNTPLHLAANTGHLEIVEVLLKAGADVNAQDKFGKTAFDISIDNGNEDLAEILQKAA

binding result [1]: binds
B23: Protein #32 (designed binder)
chain: MRGSHHHHHHGSDLGKKLLEAARAGQDDEVRILMANGADVNAIDTWGNTPLHLAADYGHLEIVEVLLKNGADVNALDWFGDTPLHLAASLGHLEIVEVLLKNGADVNAVDTYGNTPLHLAANTGRLEIVEVLLKYGADVNAQDKFGKTAFDISIDNGNEDLAEILQKAA

binding result [1]: binds
B24: Protein #33 (designed binder)
chain: MRGSHHHHHHGSDLGKKLLEAARAGQDDEVRILMANGADVNAQDRWGDTPLHLAASAGHLKIVEVLLKYGADVNADDVFGDTPLHLAASLGHLEIVEVLLKYGADVNADDYAGNTPLHLAANTGHLEIVEVLLKHGADVNAQDKFGKTAFDISIDNGNEDLAEILQKAA

binding result [1]: binds
B25: Protein #34 (designed binder)
chain: MRGSHHHHHHGSDLGKKLLEAARAGQDDEVRILMANGADVNAQDRWGDTPLHLAASAGHLKIVEVLLKYGADVNADDVFGDTPLHLAASLGHLEIVEVLLKYGADVNADDYAGNTPLHLAANTGHLEIVEVLLKYGADVNAQDKFGKTAFDISIDNGNEDLAEILQKAA

Kd [1]: 0.066 nM
B26: Protein #25 (designed binder)
chain: MRGSHHHHHHGSDLGKKLLEAARAGQDDEVRILMANGADVNAKDRYGDTPLHLAADIGHLEIVEVLLKAGADVNAEDYFGNTPLHLAASYGHLEIVEVLLKAGADVNAKDDYGNTPLHLAANTGHLEIVEVLLKAGADVNAQDKSGKTPADLAADAGHEDIAEVLQKAA

Kd [1]: 0.129 nM
B27: Protein #27 (designed binder)
chain: MRGSHHHHHHGSDLGKKLLEAARAGQDDEVRILLKAGADVNAKDRYGDTPLHLAADAGHLKIVEVLLKAGADVNAEDYFGNTPLHLAASAGHLEIVEVLLKAGADVNAKDDAGNTPLHLAANTGHLKIVEVLLKAGADVNAQDKSGKTPADLAADAGHEDIAEVLQKAA

binding result [1]: binds
B28: Protein #37 (designed binder)
chain: MRGSHHHHHHGSDLGKKLLEAARAGQDDEVRILMANGADVNASDDTGLTPLHLAANRGHLEIVEVLLKHGADVNANDFAGMTPLHLAANVGHLEIVEVLLKYGADVNAHDDYGLTPLHLAANWRHLEIVEVLLKNGADVNAQDKFGKTAFDISIDNGNEDLAEILQKAA

binding result [1]: binds
B29: Protein #36 (designed binder)
chain: MRGSHHHHHHGSDLGKKLLEAARAGQDDEVRILMANGADVNANDSSGLTPLHLAAFYGHLEIVEVLLKYGADVNADDDWGHTPLHLAAHYGHLEIVEVLLKHGADVNAIDTRGLTPLHLAAIAGHLEIVEVLLKYGADVNAQDKFGKTAFDISIDNGNEDLAEILQKAA
